We go through 1 molecule from patent publication US20030148973A1, “MAGE-A1 peptides for treating or preventing cancer” (priority 2001, published 2003).

This test concerns the target HLA-A0201 molecules on the surface of T2 cells. The test is described as follows: T2 cell HLA-A0201 stabilization; 20 µg peptide on 10^6 acid-stripped T2 cells, BB7.2 staining, flow cytometry. The note with it: remark: other sources report otherwise.

Turning to CLGLSYDGL [MAGE-A1 174], the Fluorescence Index (FI) worked out at 1.73 FI.
